In paper PMC3245711:

Target: T1, human KCNJ2 channel (pND-CTFH construct, C-terminal FLAG and octa-histidine tags) (human), P63252
T1 chain: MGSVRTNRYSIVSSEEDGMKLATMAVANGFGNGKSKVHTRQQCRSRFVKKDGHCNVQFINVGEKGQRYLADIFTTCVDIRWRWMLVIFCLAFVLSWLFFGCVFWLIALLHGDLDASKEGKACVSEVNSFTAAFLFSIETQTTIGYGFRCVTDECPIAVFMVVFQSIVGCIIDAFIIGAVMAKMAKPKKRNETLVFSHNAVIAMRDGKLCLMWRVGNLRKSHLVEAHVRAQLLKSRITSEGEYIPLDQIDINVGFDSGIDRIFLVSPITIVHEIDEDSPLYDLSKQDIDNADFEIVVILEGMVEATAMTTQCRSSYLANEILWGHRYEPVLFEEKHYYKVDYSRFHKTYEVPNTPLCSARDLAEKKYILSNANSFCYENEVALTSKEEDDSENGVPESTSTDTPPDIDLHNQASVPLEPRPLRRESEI
Test: SEC
Conditions: remark: other sources report otherwise

B1: human KCNJ2 channel (pND-CTFH construct, C-terminal FLAG and octa-histidine tags), P63252 1-427 (natural protein)
chain: MGSVRTNRYSIVSSEEDGMKLATMAVANGFGNGKSKVHTRQQCRSRFVKKDGHCNVQFINVGEKGQRYLADIFTTCVDIRWRWMLVIFCLAFVLSWLFFGCVFWLIALLHGDLDASKEGKACVSEVNSFTAAFLFSIETQTTIGYGFRCVTDECPIAVFMVVFQSIVGCIIDAFIIGAVMAKMAKPKKRNETLVFSHNAVIAMRDGKLCLMWRVGNLRKSHLVEAHVRAQLLKSRITSEGEYIPLDQIDINVGFDSGIDRIFLVSPITIVHEIDEDSPLYDLSKQDIDNADFEIVVILEGMVEATAMTTQCRSSYLANEILWGHRYEPVLFEEKHYYKVDYSRFHKTYEVPNTPLCSARDLAEKKYILSNANSFCYENEVALTSKEEDDSENGVPESTSTDTPPDIDLHNQASVPLEPRPLRRESEI
For B1, the stoichiometry N was 4.
